Data taken from paper PMC2677547.

Biological target: Coxsackievirus and adenovirus receptor (CAR), endogenous on rat spinal cord motor neurons (rat (endogenous in spinal cord motor neurons)) (UniProt Q9R066)
Sequence of UniProt Q9R066 (Q9R066 20-365): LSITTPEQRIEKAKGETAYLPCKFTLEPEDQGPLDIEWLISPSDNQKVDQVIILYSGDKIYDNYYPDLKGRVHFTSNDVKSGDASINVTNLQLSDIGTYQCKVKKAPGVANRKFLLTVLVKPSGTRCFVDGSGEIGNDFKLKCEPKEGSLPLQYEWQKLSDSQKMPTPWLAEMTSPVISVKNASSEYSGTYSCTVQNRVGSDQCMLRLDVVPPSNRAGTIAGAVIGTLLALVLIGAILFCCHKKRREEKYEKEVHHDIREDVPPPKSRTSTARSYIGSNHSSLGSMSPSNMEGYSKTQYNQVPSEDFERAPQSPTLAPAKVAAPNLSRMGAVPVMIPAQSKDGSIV

In the case of “CAV-2 fibre knob, unlabelled recombinant (FK) (domain or fragment)”, the CAV-2 virion uptake in MNs after pre-incubation with saturating concentrations of recombinant FK (blocks CAV-2 virion with CAR) is reported as 76%.
